# Test results published in IntAct's records for PubMed 22624718.
# B1: Leukocyte antigen CD37 (Homo sapiens), P11049 (parent)
# chain: MSAQESCLSLIKYFLFVFNLFFFVLGSLIFCFGIWILIDKTSFVSFVGLAFVPLQIWSKVLAISGIFTMGIALLGCVGALKELRCLLGLYFGMLLLLFATQITLGILISTQRAQLERSLRDVVEKTIQKYGTNPEETAAEESWDYVQFQLRCCGWHYPQDWFQVLILRGNGSEAHRVPCSCYNLSATNDSTILDKVILPQLSRLGHLARSRHSADICAVPAESHIYREGCAQGLQKWLHNNLISIVGICLGVGLLELGFMTLSIFLCRNLDHVYNRLARYR
# Variants of: B1
# Conditions: with lyn_human LYN
row,effect of a mutation on the interaction,Variant
1,disrupting interaction,Y13F

# Variants of: B1
# Conditions: with ptn6_human PTPN6, P29350
# Sequence of ptn6_human PTPN6, P29350 (P29350 whole entry): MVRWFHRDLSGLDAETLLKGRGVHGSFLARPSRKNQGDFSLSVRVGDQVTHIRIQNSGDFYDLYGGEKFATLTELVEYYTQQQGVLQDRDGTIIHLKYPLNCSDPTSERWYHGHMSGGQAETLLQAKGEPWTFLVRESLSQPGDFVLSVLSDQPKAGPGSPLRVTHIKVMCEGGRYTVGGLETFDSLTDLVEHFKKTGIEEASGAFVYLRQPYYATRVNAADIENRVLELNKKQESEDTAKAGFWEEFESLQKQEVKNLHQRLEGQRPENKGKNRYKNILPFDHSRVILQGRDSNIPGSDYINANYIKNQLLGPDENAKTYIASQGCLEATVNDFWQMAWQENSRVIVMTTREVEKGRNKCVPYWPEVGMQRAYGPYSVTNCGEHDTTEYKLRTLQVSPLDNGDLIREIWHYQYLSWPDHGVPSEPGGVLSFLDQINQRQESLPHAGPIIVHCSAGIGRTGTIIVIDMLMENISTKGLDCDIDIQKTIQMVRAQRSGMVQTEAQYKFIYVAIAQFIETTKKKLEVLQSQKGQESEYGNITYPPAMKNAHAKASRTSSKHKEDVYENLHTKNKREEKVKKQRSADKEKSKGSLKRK
row,effect of a mutation on the interaction,Variant
1,disrupting interaction,Y13F
